These are literature values, as cited in PMC6995517.

As usually defined, the Kd is the free concentration of one partner at which half of the binding sites on the other are occupied at equilibrium, for simple one-to-one binding.

This data set has as its target transferrin receptor (TfR) (Homo sapiens) (UniProt P02786).

transferrin receptor (TfR) (Homo sapiens), sequence (P02786 89-760): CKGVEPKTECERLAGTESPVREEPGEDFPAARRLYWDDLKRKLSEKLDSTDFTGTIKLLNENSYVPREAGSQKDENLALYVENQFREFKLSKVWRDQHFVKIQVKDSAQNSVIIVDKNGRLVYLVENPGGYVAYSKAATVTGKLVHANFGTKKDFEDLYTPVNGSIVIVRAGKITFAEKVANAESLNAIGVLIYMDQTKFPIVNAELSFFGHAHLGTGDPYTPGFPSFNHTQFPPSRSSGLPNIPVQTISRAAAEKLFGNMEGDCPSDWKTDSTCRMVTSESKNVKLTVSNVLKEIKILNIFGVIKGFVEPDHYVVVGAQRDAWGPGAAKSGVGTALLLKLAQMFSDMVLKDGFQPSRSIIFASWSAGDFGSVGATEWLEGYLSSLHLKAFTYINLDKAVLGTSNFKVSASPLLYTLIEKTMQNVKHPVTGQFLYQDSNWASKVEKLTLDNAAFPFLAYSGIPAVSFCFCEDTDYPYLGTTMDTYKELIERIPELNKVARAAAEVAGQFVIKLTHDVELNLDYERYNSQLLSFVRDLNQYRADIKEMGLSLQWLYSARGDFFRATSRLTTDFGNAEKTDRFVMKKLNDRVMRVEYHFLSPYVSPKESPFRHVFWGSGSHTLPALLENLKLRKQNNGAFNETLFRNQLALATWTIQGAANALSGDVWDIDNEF

As for T7 peptide, the Kd is 10 nM.
